Assay results reported in patent US20150191542A1.

Tests used:
[1] = molecular target: T1, MICA*001 expressed on transfected cells (human); experiment: flow cytometry, MFI against antibody concentration on C1R-MICA*01 cells
T1 sequence: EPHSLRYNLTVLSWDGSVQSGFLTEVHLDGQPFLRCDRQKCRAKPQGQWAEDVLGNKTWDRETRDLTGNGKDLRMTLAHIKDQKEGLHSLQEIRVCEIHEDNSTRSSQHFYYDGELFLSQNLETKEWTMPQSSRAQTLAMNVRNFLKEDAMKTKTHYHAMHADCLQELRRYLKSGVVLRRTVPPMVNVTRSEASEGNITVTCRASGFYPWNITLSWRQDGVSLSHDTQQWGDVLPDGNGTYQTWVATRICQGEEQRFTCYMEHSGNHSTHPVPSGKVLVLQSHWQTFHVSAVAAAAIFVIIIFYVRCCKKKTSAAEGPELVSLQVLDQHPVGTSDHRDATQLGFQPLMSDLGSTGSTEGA

[2] = molecular target: MICA*007 expressed on C1R transfectant cells (human) (UniProt Q29983); experiment: flow cytometry, MFI against antibody concentration on C1R-MICA*07 cells
[3] = molecular target: MICA*004 expressed on C1R transfectant cells (human) (UniProt Q29983); experiment: flow cytometry, MFI against antibody concentration on C1R-MICA*04 cells
[4] = molecular target: MICA*008 expressed on C1R transfectant cells (human) (UniProt Q29983); experiment: flow cytometry, MFI against antibody concentration on C1R-MICA*08 cells

MICA*004 expressed on C1R transfectant cells (human), sequence (Q29983 other isoform, or with tags, fused parts or gaps limits assumed): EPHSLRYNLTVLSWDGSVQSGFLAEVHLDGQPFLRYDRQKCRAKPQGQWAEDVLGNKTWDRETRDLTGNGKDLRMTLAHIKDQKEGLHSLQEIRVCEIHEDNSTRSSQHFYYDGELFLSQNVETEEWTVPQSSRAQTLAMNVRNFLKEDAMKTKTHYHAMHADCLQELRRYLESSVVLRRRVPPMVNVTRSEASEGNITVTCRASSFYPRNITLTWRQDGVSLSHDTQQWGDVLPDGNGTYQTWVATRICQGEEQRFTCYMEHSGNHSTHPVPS

EC50 (read off the curve) [1] [µg/mL]	EC50 (read off the curve) [2] [µg/mL]	EC50 (read off the curve) [3] [µg/mL]	EC50 (read off the curve) [4] [µg/mL]	Binder
0.6	1			CHG1-M-MIA-6E4 (antibody, from a related filing, V domains shown) VH: EVQLVESGGALVKPGGSLKLSCAASGFTFSYYAMSWVRQTPEKRLEWVATISRGGNYIYYTDSVKGRFTISRDNAKNTLYLQMTSLRSEDTAMFYCASISDYDGAWLAYWGQGTTLTVSS VL: DVLMTQTPLSLPVSLGDQASISCRSSQSIIHTNGNTYLEWYLQKPGQSPKLLIYKISNRFSGVPDRFSGSGSGTDFTLKISRVEAEDLGVYYCFQGSHVPWTFGGGTKLEIKR
	1	0.3	0.3	CHG1-M-MIA-12A10 (antibody, from a related filing, V domains shown) VH: QVQLQQSGADLVRPGASVRLSCRASGYSFTNYWMNWVKQRPGQGLEWIGMIHPSDSETRLNQKFKDKATLTVDKSSNTAYMQLSSPTSEDSAIYYCARDDFFTMDYWGQGTSVTVSS VL: DILLTQSPAILSVSPGERVSFSCRASQNIVTSIHWYQQSTNGSPRLLIKYASESISGIPSRFSGSGSGTDFTLTINSVESEDVADYYCQQSNIWPLTFGAGTKLELK
		0.2	0.3	CHG1-M-MIA-10F3 (antibody, from a related filing, V domains shown) VH: QVQLQQSAAELARPGASVKMSCKASGYTFTSYTMHWVKQRPGQGLEWIGYINPSSGYTEYNQKFKDKTTLTVDKSSTTSYMQLSSLTSDNSAVYYCARGGDWDVDWFVYWGQGTLVTVSA VL: QIVLTQSPAIMSASPGEKVTITCSASSSISYMHWFQQKPGTSPKLWIYSTSKLASGVPARFSGSGSGTSHSLTISRMEAEDAATYYCQHRSTYPFTFGSGTKLEIK
	0.3	0.2	0.3	CHG1-M-MIA-18E8 (antibody, from a related filing, V domains shown) VH: DVQLQESGPDLVNPSQSLSLICTVTGYSITSDYSWHWIRQFPGNKLEWMGNIHYSGRINYNPSLRSRISITRDTSKNQFFLQLISVTTEDTATYYCATRRTFGNFEDYWGQGTTLTVSS VL: QIVLSQSPATLSVSPGEKVTMTCRSSSSVNYMHWYQQKPGSSPKPWIYATSTLASGVPARFSGSGSGTSYSLTISRVEAEDAATYYCQQWSSNPLTFGAGTKLELK
		0.2	0.3	CHG1-M-MIA-14B4 (antibody, from a related filing, V domains shown) VH: QVQLQQPGAELVRPGASVKLSCKASGYSFTSYWMNWMKQRPGQGLEWIGMIHPSDSETRLNQKFKDKATLTVDKSSSTAYMQLNSPTSEDSAVYYCAREMGPYTLDYWGQGTSVTVSS VL: DILLTQSPAILSVSPGARVSFSCRASQNIDTSIHWYQQRTNGSPRLLIKYASESISGIPSRFSGSGSGTDFTLSINSVESEDIADYYCQQSNYWPLTFGAGTKLELK
1				CHG1-M-MIA-19E9 (antibody, V domains shown) VH: DVQLQESGPGLVKPSQSLSLTCTVTGYSITSDYAWNWIRQFPGNKLEWMGFVSYSGTTKYNPSLKSRISITRDTSENQFFLQLNSVTSEDTATYYCARGYGFDYWGQGTTLTVSS VL: EIVLTQSPTTMAASPGEKITITCSATSSISSIYFHWYQQRPGFSPKLLIYRTSNLASGVPARFSGSGSGTSYSLTIGTMEAEDVATYYCQQGTTIPFTFGSGTKLEIK
